Assay results published in US20080207488A1, “Method for Detecting Peptides Comprising a Cross-B Structure” (priority 2005, published 2008).

Assays:
[1] = Thioflavin T fluorescence; assay type: physicochemical; details: for Fluorescence (a.u. +/− SD) ThT: marketed biopharmaceutical within expiry limits, five μL tested
Description: Fluorescence of ThT-protein/peptide adducts was measured as follows. […] Fluorescence was measured at 485 nm upon excitation at 435 nm. Background signals from buffer, buffer with ThT and protein/peptide solution without ThT were subtracted from corresponding measurements with protein solution incubated with ThT. […] Fluorescence was measured in triplicate on a Hitachi F-4500 fluorescence spectrophotometer (Ltd., Tokyo, Japan).
(§1) Formulated protein therapeutics were obtained from the local hospital pharmacy and were used as supplied by the manufacturers. […] Lyophilized therapeutics were dissolved according to the manufacturers recommendations. […] Other protein therapeutics were only kept at 4° C., and assayed for the presence of cross-β structure conformation at shown time points. Enhancement in fluorescence of ThT and Congo red was measured with all formulated protein therapeutics. For this purpose, proteins were diluted to the indicated concentrations. […] Zinc-insulin was diluted tenfold in the activation assay, GH was diluted to a final concentration of 500 μg ml^−1. Activation of factor XII and prekallikrein by the therapeutics was tested in the chromogenic factor XII assay (see above). […] After coating, plates were blocked with Blocking Reagent (Roche Diagnostics, Almere, The Netherlands).
To prepare structurally altered ovalbumin (OVA) with amyloid cross-β structure conformation, purified OVA (Sigma, A-7641, lot 071k7094) was heated to 85° C. One mg ml^−1 OVA in 67 mM NaPi buffer pH 7.0, 100 mM NaCl, was heated for two cycles in PCR cups in a PTC-200 thermal cycler (MJ Research, Inc., Waltham, Mass., USA). In each cycle, OVA was heated from 30 to 85° C. at a rate of 5° C./min. Native OVA (nOVA) and heat-denatured OVA (dOVA) were tested in the ThT fluorescence assay and in the Plg-activation assay. In the fluorescence assay and in the Plg-activation assay, 25 and 100 μg ml^−1 nOVA and dOVA were tested, respectively. TEM images of nOVA and dOVA were taken to check for the presence of large aggregates. […] MSA (#126674, Calbiochem) was dissolved in 8 M urea, 100 mM Tris-HCl pH 8.2, at 10 mg ml^−1 final concentration. Dithiothreitol (DTT) was added to a final concentration of 10 mM. Air was replaced by N2 and the solution was incubated for 2 h at room temperature. Then, the solution was transferred to ice and iodoacetamide was added from a 1 M stock to a final concentration of 20 mM. […] Alkyl-MSA was dialyzed against H2O before use. […] In the ThT-fluorescence assay 25 μg ml^−1 nMSA and alkyl-MSA were tested, and in the Plg-activation assay 100 μg ml^−1 was tested. The presence of aggregates or fibrils was analyzed using TEM. […]
(§2) Protein therapeutics were obtained from the local hospital pharmacy and analyzed within the expiry limits as stated by the manufacturers.

Congo red fluorescence = assay type: physicochemical; details: for Fluorescence (a.u. +/− SD) CR: marketed biopharmaceutical within expiry limits, five μL tested; for enhancement of Congo red fluorescence: therapeutics stored at 4° C.
Description: Background signals from buffer, buffer with Congo red and protein/peptide solution without Congo red were subtracted from corresponding measurements with protein solution incubated with Congo red. Fluorescence was measured in triplicate on a Hitachi F-4500 fluorescence spectrophotometer (Ltd., Tokyo, Japan).
as §1, §2

[2] = Stability testing of biopharmaceuticals under denaturing conditions (ThT fluorescence, tPA activation); assay type: physicochemical; details: ThT at 25 μg/mL, tPA activation at 100 μg/mL
Description: To mimic accelerated stability testing several therapeutics were exposed to denaturing conditions and assayed for amyloid-like properties before and after treatment by tPA activation assay at 100 μg/mL protein and ThT fluorescence enhancement assay at 25 μg/mL protein. For this purpose, 5 mg/mL Glucagon (Glucagen; Novo Nordisk Farma B.V., Alphen aan de Rijn, The Netherlands) was incubated at 37° C. in 0.01 M HCl for 48 hours. One mg/mL Etanercept (Enbrel; Wyeth Pharmaceuticals B.V., Hoofddorp, The Netherlands) in 67 mM sodium phosphate buffer, 100 mM NaCl pH 7.0 was gradually heated from 30° C. to 85° C. over a period of 12 minutes and afterwards cooled to 4° C. for 5 minutes, this treatment was repeated 4 times. Abciximab (Reopro; Centocor B.V., Leiden, The Netherlands) and Infliximab (Remicade; Schering-Plough B.V., Utrecht, The Netherlands) were incubated at 65° C. for 16 and 72 hours, respectively.

tPA [3] = biological target: T1, tPA (Homo sapiens, UniProt P00750); assay: tPA/plasminogen activation assay (400 pM tPA); assay type: biochemical; details: % of standardized positive control (denatured γ-globulins 100 μg/ml); 1:10 diluted samples
T1 construct: purchased Boehringer-Ingelheim (Actilyse, Alteplase)
Description: β2-GPI was reduced and alkylated as follows. Six hundred forty μl of β2-GPI stock was mixed with 640 μl of 8 M Urea (cooled solution) in 0.1 M Tris pH=8.2. The solution was degassed with N2 gas for approximately 6 minutes. From a 1 M DTT stock 12.8 μl was added to the solution, mixed and incubated for 3 hours at room temperature. A 1 M Iodoacetamide (Sigma; 1-6125) was prepared, of which 25.6 μl was added to the β2-GPI reaction mixture. The solution was subsequently dialysed against PBS. […] Signals obtained with alkyl-62gpi are compared with those obtained with native β2gpi starting material.
Exiqon Peptide Immobilizer plates were blocked for 1 hour with PBS, 1% Tween20 and rinsed twice with distilled water. The conversion of the chromogenic substrate S-2251 (Chromogenix, Italy) by plasmin was kinetically measured at 37° C. on a Spectramax340 microplate reader at a wavelength of 405 nm. […] Denatured γ-globulins (100 μg/ml) with amyloid-like structure was used as reference and positive control. Lyophilized γ-globulins (Sigma, MO, USA) were dissolved in a 1(:)1 volume ratio of 1,1,1,3,3,3-hexafluoro-2-propanol and trifluoro-acetic acid and subsequently dried under air. Dried γ-globulins was dissolved in H2O to a final concentration of 1 mg/ml and kept at room temperature for at least three days and subsequently stored at −20° C.
as §2

tPA [4] = biological target: T1, tPA; assay: Plasminogen-activation assay (tPA-mediated Plg to Pls, S-2251); assay type: biochemical; details: for tPA activating potential of native and denatured glucagon and Etanercept: FIG. 6E, G
Description: (§3) Plasmin (Pls) activity was assayed as described^7. Peptides and proteins that were tested for their stimulatory ability were regularly used at 100 μg ml^−1. […] Chromogenic substrate S-2251 (Chromogenix, Instrumentation Laboratory SpA, Milano, Italy) was used to measure Pls activity. Conversion of zymogen factor XII (#233490, Calbiochem, EMD Biosciences, Inc., San Diego, Calif.) to proteolytically active factor XII (factor XIIa) was assayed by measurement of the conversion of chromogenic substrate Chromozym-PK (Roche Diagnostics, Almere, The Netherlands) by kallikrein. Chromozym-PK was used at a concentration of 0.3 mM. Factor XII, human plasma prekallikrein (#529583, Calbiochem) and human plasma cofactor high-molecular weight kininogen (#422686, Calbiochem) were used at concentrations of 1 μg ml^−1. […] Assays were performed using microtiter plates (Costar, Cambridge, Mass., USA). Peptides and proteins were tested for their ability to activate factor XII. 150 μg ml^−1 kaolin, an established activator of factor XII was used as positive control and solvent (H2O) as negative control. The conversion of Chromozym-PK was recorded kinetically at 37° C. for at least 60 minutes. Assays were done in duplicate. […] Alternatively, chromogenic substrate S-2222 (Chromogenix) was used to follow the activity of factor XII itself. With S-2222, activation of factor XII in plasma was measured, using 60% v/v plasma, diluted with substrate and H2O with or without potential cofactor. Furthermore, auto-activation of factor XII was measured by incubating 53 μg ml^−1 purified factor XII in 50 mM Tris-HCl buffer pH 7.5 with 1 mM EDTA and 0.001% v/v Triton-X100, with S-2222 and H2O with or without potential cofactor.
as §1
Purification of β2-glycoprotein I (β2GPI) was performed according to established methods^11,12. Recombinant human β2GPI was made using insect cells and purified as described^11. Plasma derived β2GPI as used in a factor XII ELISA, the chromogenic Plg-activation assay and in the anti-phospholipid syndrome antibody ELISA (see below), was purified from fresh human plasma as described^12.
To prepare structurally altered ovalbumin (OVA) with amyloid cross-β structure conformation, purified OVA (Sigma, A-7641, lot 071k7094) was heated to 85° C. One mg ml^−1 OVA in 67 mM NaPi buffer pH 7.0, 100 mM NaCl, was heated for two cycles in PCR cups in a PTC-200 thermal cycler (MJ Research, Inc., Waltham, Mass., USA). In each cycle, OVA was heated from 30 to 85° C. at a rate of 5° C./min. Native OVA (nOVA) and heat-denatured OVA (dOVA) were tested in the ThT fluorescence assay and in the Plg-activation assay. In the fluorescence assay and in the Plg-activation assay, 25 and 100 μg ml^−1 nOVA and dOVA were tested, respectively. TEM images of nOVA and dOVA were taken to check for the presence of large aggregates. […] MSA (#126674, Calbiochem) was dissolved in 8 M urea, 100 mM Tris-HCl pH 8.2, at 10 mg ml^−1 final concentration.

tPA [5] = biological target: T1, tPA; assay: tPA ELISA with coated protein therapeutics; assay type: binding; details: 5 μg ml^−1 coated, stored at 4° C.
Description: as §1

tPA [6] = biological target: T1, tPA; assay: tPA binding assay with immobilized biopharmaceuticals in an ELISA; details: therapeutic coated 1:10; one-site binding fit
Description: Nunc Immobilizer plates (Nalge Nunc, #436013, Rochester, N.Y., USA) were coated with 50 μL containing 5 μg/mL of sample protein (unless indicated otherwise) in 100 mM NaHCO3, pH 9.6, 0.05% m/v NaN3 for 1 hour at room temperature. Plates were washed twice with Tris buffered saline pH 7.2 containing 0.1% Tween20 (TBST) and blocked with PBS containing 1% Tween20 for 1 hour at room temperature. […] Plates were washed five times with TBST and incubated with peroxidase labeled anti-mouse immunoglobulins (RAMPO; DAKOCytomation, Glostrup, Denmark) diluted 1:3000 in PBST for 30 minutes at room temperature. Plates were washed five times with PBS 0.1% Tween20, and stained with 100 μL/well of tetramethyl-benzidine (TMB) substrate (Biosource Europe, Nivelles, Belgium). The reaction was terminated with 50 μL/well of 2 M H2SO4 and substrate conversion was read at 450 nm on a Spectramax340 microplate reader. Curves were fitted with a one-site binding model (GraphPad Prism version 4.02 for Windows, Graphpad Software, CA, USA) from which Kd and Bmax were determined.
as §2

factor XII = biological target: T2, factor XII (Homo sapiens, UniProt P00748); assay: Chromogenic factor XII/prekallikrein activation assay (Chromozym-PK); assay type: biochemical
T2 construct: purchased Calbiochem, EMD Biosciences #233490
T2 sequence (P00748 20-615): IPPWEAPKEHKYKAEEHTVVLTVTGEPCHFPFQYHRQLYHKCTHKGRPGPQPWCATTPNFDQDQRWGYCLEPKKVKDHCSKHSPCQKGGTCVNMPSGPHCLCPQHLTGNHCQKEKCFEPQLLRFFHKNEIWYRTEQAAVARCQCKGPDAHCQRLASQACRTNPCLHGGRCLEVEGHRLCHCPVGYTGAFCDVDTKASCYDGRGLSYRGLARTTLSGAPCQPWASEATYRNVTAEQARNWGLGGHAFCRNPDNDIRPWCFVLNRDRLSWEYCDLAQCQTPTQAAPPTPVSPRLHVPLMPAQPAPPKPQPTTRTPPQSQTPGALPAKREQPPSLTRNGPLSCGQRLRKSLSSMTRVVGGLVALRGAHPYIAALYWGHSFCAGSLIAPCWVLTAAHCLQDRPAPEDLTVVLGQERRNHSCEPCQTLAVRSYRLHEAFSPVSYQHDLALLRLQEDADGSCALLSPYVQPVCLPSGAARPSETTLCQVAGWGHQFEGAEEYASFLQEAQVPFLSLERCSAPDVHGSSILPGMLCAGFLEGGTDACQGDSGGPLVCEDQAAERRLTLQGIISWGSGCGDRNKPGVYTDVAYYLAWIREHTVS
Description: as §3, §1

T1 sequence (P00750 36-562): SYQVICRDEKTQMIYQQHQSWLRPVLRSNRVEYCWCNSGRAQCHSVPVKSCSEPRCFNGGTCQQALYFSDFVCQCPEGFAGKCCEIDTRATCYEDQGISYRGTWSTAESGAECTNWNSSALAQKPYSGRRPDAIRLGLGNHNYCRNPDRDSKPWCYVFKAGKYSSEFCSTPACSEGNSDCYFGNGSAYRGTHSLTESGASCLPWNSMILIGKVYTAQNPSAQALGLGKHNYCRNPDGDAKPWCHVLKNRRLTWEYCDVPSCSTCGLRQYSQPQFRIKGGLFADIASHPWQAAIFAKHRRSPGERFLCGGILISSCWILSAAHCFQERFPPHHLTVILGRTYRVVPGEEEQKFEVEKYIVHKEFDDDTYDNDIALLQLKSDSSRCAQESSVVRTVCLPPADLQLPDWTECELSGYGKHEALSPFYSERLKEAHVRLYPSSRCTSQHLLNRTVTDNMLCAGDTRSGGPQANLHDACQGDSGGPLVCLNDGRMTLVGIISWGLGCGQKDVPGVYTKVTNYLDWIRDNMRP

Row | tPA activation Max. Activation (%) (tPA [3]) | tPA activating potential of native and denatured glucagon and Etanercept (tPA [4]) | binding of tPA to immobilized therapeutic (tPA [5]) | tPA activation by protein therapeutics (tPA [4]; stored at 4° C., GH 500 μg ml^−1, zinc-insulin diluted tenfold) | tPA Binding Bmax (OD450 nm) (tPA [6]) | factor XII activation by gelatin (factor XII; kept at 37° C.) | factor XII/prekallikrein activation by protein therapeutics (factor XII; stored at 4° C.) | Substance | Fluorescence (a.u. +/− SD) ThT [1] | Fluorescence (a.u. +/− SD) CR (Congo red fluorescence) | amyloid-like properties after exposure to harsh denaturing conditions (low pH, heat) [2] | ThT fluorescence enhancement of native and denatured proteins ([1]; 25 μg ml^−1) | enhancement of ThT fluorescence ([1]; therapeutics stored at 4° C.) | enhancement of Congo red fluorescence (Congo red fluorescence) | Congo red fluorescence of gelatin (Congo red fluorescence; stored at 4° C. and 37° C.)
1 | 0 | – | – | – | – | – | – | Infliximab: human-murine chimeric monoclonal antibody (Remicade-infliximab) | 19 +/− 1 a.u. | 67 +/− 2 a.u. | amyloid-like properties are adopted | – | – | – | –
2 | 11.25 | has some tPA activating potential | – | – | – | – | – | Glucagon: human glucagon (Glucagen, Novo Nordisk) | 48 +/− 1 a.u. | – | amyloid-like properties are adopted | – | – | – | –
3 | 0 | induces some tPA activation | – | – | – | – | – | Etanercept | 23 +/− 3 a.u. | – | amyloid-like properties are adopted | gave some ThT fluorescence enhancement | – | – | –
4 | – | – | binding of tPA was established | induced tPA activation | 0.9369 | – | – | Somatropin: human growth hormone (GH) (Genotropin, Pharmacia) | 1317 +/− 10 a.u. | 429 +/− 2 a.u. | – | – | enhance fluorescence of ThT | to some extent | –
5 | – | – | binding of tPA was established | – | – | activated factor XII | not | gelatin | – | – | – | – | – | enhanced the fluorescence of Congo red | enhanced Congo red fluorescence in a storage temperature dependent manner
